This series can be described thus: protein stability index of a GFP-peptide fusion (GPS, HEK-293T) (PSI 1-6); higher = more stable.
The mark [1] stands for this setting: treatment: DMSO, c terminus: a fixed tail appended.
The mark [2] stands for this setting: treatment: MLN4924 1 uM, 8 h, c terminus: a fixed tail appended.
Where [3] appears, read: treatment: DMSO, c terminus: native.
[4] abbreviates: treatment: MLN4924 1 uM, 8 h, c terminus: native.

± gives the standard deviation.
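Also: 24-mer peptide tiles fused after GFP, lentivirally expressed, FACS-sorted into six equal bins by GFP/DsRed ratio, decoded by Illumina sequencing, PSI is the read-weighted mean bin number.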

Regarding QKKQKLEQKAAGSASAKRVWNMTA [FATE1], the protein stability index stood at 4.01 ± 0.15 under setting [1] and 3.93 ± 0.37 under setting [2].
Taken in the same sequence, the figures for QLDREAQARHQLVLTAVDGGTPAR [PCDHGC5] were 4.59 ± 0.1 and 4.76 ± 0.18.
With QLTGHQRIHSGEEPHKCPECGKRF [ZNF449], the protein stability index by setting is: under setting [1], 4.01 ± 0.28; under setting [2], 4.82 ± 0.38.
In the same order, the values of QLVKKLNDSDHQSSTSPLMEGTPT [VPS39] are 4.87 ± 0.22 and 4.9 ± 0.09.
Take QMPQEEVELLPPAPKGKGRKPAAG [BRD3]: the protein stability index under setting [1] was 4.98 ± 0.39 and the protein stability index under setting [2] stood at 5.1 ± 0.18.
Taken in the same sequence, the figures for QNPVLSKLLMADQDSPLDLTVRKS [LCOR] were 4.14 ± 0.27 and 4.25 ± 0.21.
In the same order, the values of QNRVFAYLCKRVPHTVLDRQLLCL [CEP70] are 2.46 ± 0.76 and 2.46 ± 0.59.
Consider QPKPLLLPAAPKTQTISSIPPQT [ATF6], for which the protein stability index is, setting by setting: under setting [3], 4.73 ± 0.23; under setting [4], 4.65 ± 0.34.
Regarding QPLSPASSSYSVSSPRSVDSYSST [ATF6], the protein stability index under setting [1] was 4.38 ± 0.22 and the protein stability index under setting [2] is 4.59 ± 0.28.
Taken in the same sequence, the figures for QPPPPPPPPPMQPTVPSAATSQPT [CCDC6] were 5.11 ± 0.16 and 5.29 ± 0.062.
Taken in the same sequence, the figures for QPTTLVLPPQYVDDVISRIDRMFP [MED27] were 3.67 ± 0.24 and 3.98 ± 0.074.
Taken in the same sequence, the figures for QQDFLGLPEELRRLSGLSSVGHNW [C22orf15] were 2.96 ± 0.21 and 3.11 ± 0.14.
On to QRHPRLRPQSAQSSFPPSPGPSPD [AUP1], for which the protein stability index came out at 4.76 ± 0.21 under setting [1] and 4.97 ± 0.18 under setting [2].
In the same order, the values of QRKVDGIQKAYDELRLQSEAFKKH [CCDC89] are 4.07 ± 0.19 and 4.21 ± 0.3.
In the same order, the values of QRPFIRMSWEKEEGKSRHVDFQCV [BTBD10] are 2.95 ± 0.24 and 3.04 ± 0.37.
QRSPLGGDVLHAHLDIWKSAAWMK [SPDEF]: the protein stability index runs as follows: under setting [1], 2.61 ± 0.37; under setting [2], 2.58 ± 0.45.
In the same order, the values of QSDVGVAVFENKIYVVGGYSWNNR [KLHL13] are 2.19 ± 0.34 and 2.26 ± 0.12.
Taken in the same sequence, the figures for QSFCGENIMMPMGGMMPPGPGIPP [ZNF207] were 3.15 ± 0.31 and 3.27 ± 0.26.
In the same order, the values of QSKILKVIRKNIVKKCLELFSELA [HSP90AB1] are 2.47 ± 0.37 and 3.39 ± 0.91.
For QSLRCDLIRYICGVVHPSNEVLSS [INTS3], the protein stability index reads like this: under setting [1], 2.33 ± 0.34; under setting [2], 2.19 ± 0.45.
Taken in the same sequence, the figures for QSTDGARGKRGYSRGLHAWEISWP [SPSB2] were 2.9 ± 0.14 and 2.75 ± 0.39.
In the same order, the values of QTLDVNRDGGLCVNDLAVGLRRLG [SLC25A25] are 2.98 ± 0.23 and 3.18 ± 0.3.
In the same order, the values of QVKASSPVPATPILQLEECCTHNN [TRIM9] are 4.9 ± 0.21 and 4.923 ± 0.028.
For QVTCLRTQVLEDSEDSFCRRHPGL [TRAF3IP2], the protein stability index reads like this: under setting [1], 4.05 ± 0.2; under setting [2], 4.08 ± 0.35.
On to QYIAQFTSQFLSLQCLQALYVDSL [PRAME], for which the protein stability index worked out at 3.237 ± 0.011 under setting [1] and 3.47 ± 0.23 under setting [2].
Consider RAHAEIRKMSLLKFLAKVNGSDPR [MAGEA10], for which the protein stability index was determined as 2.37 ± 0.26 under setting [1] and 2.57 ± 0.58 under setting [2].
Taken in the same sequence, the figures for RAQLPKYQRNLPRPGQAPIGNPPV [ZNF207] were 3.75 ± 0.26 and 3.79 ± 0.14.
Taken in the same sequence, the figures for RATRAGAAEEPGVRGLLASLFAFK [C2CD2L] were 3.1 ± 0.75 and 3.01 ± 0.57.
Taken in the same sequence, the figures for RCCGAASYQDWQQNLYFNCSSPGV [TSPAN10] were 2.37 ± 0.42 and 2.33 ± 0.66.
With RDDLEALGHMFMYFLRGSLPWQGL [CSNK1G3], the protein stability index reads like this: under setting [1], 3.19 ± 0.37; under setting [2], 2.93 ± 0.15.
Taken in the same sequence, the figures for REPAGRWKEGRPRVEESGSKKEGK [PBXIP1] were 5.34 ± 0.21 and 5.36 ± 0.21.
Sequence RFVQDLVRALEQEKLQGVECGLR [DAPK3] yielded a protein stability index under setting [3] of 2.92 ± 1.3 and a protein stability index under setting [4] of 2.14 ± 0.067.
On to RKAALEQDLAFWYGPRWQEVIPYT [HMOX1], for which the protein stability index reads like this: under setting [1], 2.33 ± 0.23; under setting [2], 2.54 ± 0.39.
In the same order, the values of RKPCKLMLQVVKILVVTVQLILFG [MCOLN1] are 2.44 ± 0.33 and 2.47 ± 0.32.
Taken in the same sequence, the figures for RLKFPIDYPYSPPAFRFLTKMWHP [CDC34] were 2.49 ± 0.48 and 2.09 ± 0.15.
Taken in the same sequence, the figures for RLQHICELFIITQLQSMPSRELAS [RHOBTB3] were 3.19 ± 0.5 and 3.33 ± 0.63.
Turning to RLYVDKSLNLSTEFISSTKRPYAK [SERPINB5], the protein stability index by setting is: under setting [1], 3.41 ± 0.76; under setting [2], 3.46 ± 0.5.
Taken in the same sequence, the figures for RMPLLTPRYITDVIDAEPFIRCSL [KLHL12] were 2.27 ± 0.28 and 1.84 ± 0.52.
In the same order, the values of RMTSAAHYYPKLMSIMGNVLRFLP [GFOD1] are 2.32 ± 0.39 and 2.15 ± 0.36.
Taken in the same sequence, the figures for RNRLAATKCRKRKLERIARLEDKV [JUNB] were 3.78 ± 0.17 and 3.86 ± 0.12.
Consider RNVLELNDVRQSANYTCVAMSTLG [PTPRD], for which the protein stability index worked out at 2.85 ± 0.28 under setting [1] and 2.74 ± 0.17 under setting [2].
Consider RNWALKESFIKAIGVGLGFELQRL [AASDHPPT], for which the protein stability index is, setting by setting: under setting [1], 3 ± 0.54; under setting [2], 2.63 ± 0.52.
Taken in the same sequence, the figures for RPVILDPADPTGNLGGGDPKGWRQ [OAS1] were 4.28 ± 0.18 and 4.47 ± 0.18.
Taken in the same sequence, the figures for RPWADTCSSSGKDGNLCLHVPNPP [HESX1] were 3.48 ± 0.14 and 3.81 ± 0.19.
In the same order, the values of RQVWLLFEYPESSGPARVIAIVSV [KCNA1] are 3.25 ± 0.45 and 2.64 ± 0.48.
RRGRMALCGQAAGAASLPSELIVH [FBXO33]: the protein stability index reads like this: under setting [1], 2.96 ± 0.25; under setting [2], 2.78 ± 0.32.
Take RRLEAFEHPNVVRLMDVCATSRTD [CDK4]: the protein stability index under setting [1] amounted to 3.9 ± 0.13 and the protein stability index under setting [2] was 3.91 ± 0.27.
For RRVGILGEELADVGGVLRGLNHSL [SCARA5], the protein stability index was determined as 2.9 ± 0.095 under setting [1] and 2.94 ± 0.3 under setting [2].
Taken in the same sequence, the figures for RSHHLEMVIQLLAIMCVSCICWSP [PTGFR] were 3.18 ± 0.26 and 3.14 ± 0.69.
Regarding RSLEELTRLAFELFAEEQAEGPNR [LPCAT4], the protein stability index was 3.32 ± 0.52 under setting [1] and 3.53 ± 0.18 under setting [2].
Taken in the same sequence, the figures for RSLSERTVDKCFGRKKYDIDPRNG [SPATS1] were 4.39 ± 0.24 and 4.73 ± 0.33.
In the same order, the values of RSREARSRLLLLEQELKTVTYSLL [SMAD6] are 2.61 ± 0.36 and 2.5 ± 0.33.

(Values after the supplement of paper PMC10567573.)
